Patent publication US20210395713A1 (TRUSTEES OF DARTMOUTH COLLEGE, published 2021)
Like-named read-outs stand apart in the source and are kept apart here.

Legend:
Experiment in all cases: MHC II competition binding assay
[1] = target: T1, purified recombinant MHC II protein, allele DRB1*1101 (human)
T1 construct: bought from Benaroya Research Institute; also called MHC-II DR molecule

[2] = target: T2, purified recombinant MHC II protein, allele DRB1*0801 (human)
T2 construct: bought from Benaroya Research Institute; also called MHC-II DR molecule

[3] = target: T3, purified recombinant MHC II protein, allele DRB1*0101 (human)
T3 construct: bought from Benaroya Research Institute; also called MHC-II DR molecule

[4] = target: T4, purified recombinant MHC II protein, allele DRB1*1301 (human)
T4 construct: bought from Benaroya Research Institute; also called MHC-II DR molecule

[5] = target: T5, purified recombinant MHC II protein, allele DRB1*0701 (human)
T5 construct: bought from Benaroya Research Institute; also called MHC-II DR molecule

[6] = target: T6, purified recombinant MHC II protein, allele DRB1*1501 (human)
T6 construct: bought from Benaroya Research Institute; also called MHC-II DR molecule

[7] = target: T7, purified recombinant MHC II protein, allele DRB1*0401 (human)
T7 construct: bought from Benaroya Research Institute; also called DR4; MHC-II DR molecule

[8] = target: T8, purified recombinant MHC II protein, allele DRB1*0301 (human)
T8 construct: bought from Benaroya Research Institute; also called MHC-II DR molecule

[9] = target: T1, purified recombinant MHC II protein, …; remark: listed apart in the source
[10] = target: T2, purified recombinant MHC II protein, …; remark: listed apart in the source
[11] = target: T3, purified recombinant MHC II protein, …; remark: listed apart in the source
[12] = target: T5, purified recombinant MHC II protein, …; remark: listed apart in the source
[13] = target: T1, purified recombinant MHC II protein, …; remark: listed apart in the source
[14] = target: T3, purified recombinant MHC II protein, …; remark: listed apart in the source
[15] = target: T4, purified recombinant MHC II protein, …; remark: listed apart in the source
[16] = target: T5, purified recombinant MHC II protein, …; remark: listed apart in the source
[17] = target: T6, purified recombinant MHC II protein, …; remark: listed apart in the source
[18] = target: T7, purified recombinant MHC II protein, …; remark: listed apart in the source
[19] = target: T8, purified recombinant MHC II protein, …; remark: listed apart in the source
[20] = target: T2, purified recombinant MHC II protein, …; remark: listed apart in the source
[21] = target: T1, purified recombinant MHC II protein, …; remark: listed apart in the source
[22] = target: T2, purified recombinant MHC II protein, …; remark: listed apart in the source
[23] = target: T3, purified recombinant MHC II protein, …; remark: listed apart in the source
[24] = target: T4, purified recombinant MHC II protein, …; remark: listed apart in the source
[25] = target: T5, purified recombinant MHC II protein, …; remark: listed apart in the source
[26] = target: T6, purified recombinant MHC II protein, …; remark: listed apart in the source
[27] = target: T7, purified recombinant MHC II protein, …; remark: listed apart in the source
[28] = target: T8, purified recombinant MHC II protein, …; remark: listed apart in the source
[29] = target: T1, purified recombinant MHC II protein, …; remark: listed apart in the source
[30] = target: T3, purified recombinant MHC II protein, …; remark: listed apart in the source
[31] = target: T5, purified recombinant MHC II protein, …; remark: listed apart in the source
[32] = target: T6, purified recombinant MHC II protein, …; remark: listed apart in the source
[33] = target: T7, purified recombinant MHC II protein, …; remark: listed apart in the source
[34] = target: T1, purified recombinant MHC II protein, …; remark: listed apart in the source
[35] = target: T2, purified recombinant MHC II protein, …; remark: listed apart in the source
[36] = target: T3, purified recombinant MHC II protein, …; remark: listed apart in the source
[37] = target: T4, purified recombinant MHC II protein, …; remark: listed apart in the source
[38] = target: T6, purified recombinant MHC II protein, …; remark: listed apart in the source

Binder: GVHRQWYMHLSKYNVKVGD [cluster 3 wild-type (C3WT) epitope peptide]
- IC50 [1]: < 0.01 µM
- IC50 [2]: 0.14 µM
- IC50 [3]: < 0.01 µM
- IC50 [4]: 54.7 µM
- IC50 [5]: 0.41 µM
- IC50 [6]: 9.51 µM
- IC50 [7]: 38.1 µM
- IC50 [8]: 155 µM

B1: cluster 3 peptide with Leu83Met (peptide)
peptide: GVHRQWYMHMSKYNVKVGD
notes: synthetic mutated peptide of the lysostaphin catalytic domain; also called L83M
- IC50 [1]: 0.11 µM
- IC50 [2]: 0.37 µM
- IC50 [3]: 32.4 µM
- IC50 [4]: 27.4 µM
- IC50 [5]: 2.09 µM
- IC50 [6]: 4.42 µM
- IC50 [8]: 115 µM
- fold decrease in binding against C3WT [9]: 10 fold
- fold decrease in binding against C3WT [10]: ~5 fold
- fold decrease in binding against C3WT [11]: 2000 fold
- fold decrease in binding against C3WT [12]: > 2 fold

Binder: GVDFFMNIGTPVKAISSGKIV [cluster 2 wild-type (C2WT) epitope peptide]
- IC50 [13]: 10.1 µM
- IC50 [14]: 0.22 µM
- IC50 [15]: 104 µM
- IC50 [16]: 8.19 µM
- IC50 [17]: 2.37 µM
- IC50 [18]: 13.7 µM
- IC50 [19]: 60.1 µM

B2: cluster 2 peptide with Ile41Glu/Lys46His (peptide)
peptide: GVDFFMNEGTPVHAISSGKIV
notes: synthetic mutated peptide of the lysostaphin catalytic domain; also called 41_46
- IC50 [13]: < 0.01 µM
- IC50 [14]: < 0.01 µM
- IC50 [16]: 14.3 µM
- IC50 [17]: < 0.01 µM
- IC50 [18]: < 0.01 µM

B3: cluster 2 peptide with Ile41Glu (peptide)
peptide: GVDFFMNEGTPVKAISSGKIV
notes: synthetic mutated peptide of the lysostaphin catalytic domain; also called I41E
- IC50 [13]: 146 µM
- IC50 [14]: 0.59 µM
- IC50 [15]: 143 µM
- IC50 [16]: 7.51 µM
- IC50 [17]: 7.44 µM
- IC50 [18]: 3.48 µM

B4: cluster 2 peptide with Lys46His (peptide)
peptide: GVDFFMNIGTPVHAISSGKIV
notes: synthetic mutated peptide of the lysostaphin catalytic domain; also called K46H
- IC50 [13]: 18.3 µM
- IC50 [20]: 87.5 µM
- IC50 [14]: 0.49 µM
- IC50 [15]: 212 µM
- IC50 [16]: 4.46 µM
- IC50 [17]: 2.55 µM
- IC50 [18]: 1.65 µM
- IC50 [19]: 152 µM
- fold decrease in binding against C2WT [11]: 2 fold

Binder: DYVKAGQIIGWSGSTGY [cluster 4 wild-type (C4WT) epitope peptide]
- IC50 [21]: 1.69 µM
- IC50 [22]: 62.5 µM
- IC50 [23]: < 0.01 µM
- IC50 [24]: 78.5 µM
- IC50 [25]: 92.9 µM
- IC50 [26]: < 0.01 µM
- IC50 [27]: < 0.01 µM
- IC50 [28]: 31.4 µM

B5: cluster 4 peptide with Lys95Glu/Ile99Gln (peptide)
peptide: DYVEAGQQIGWSGSTGY
notes: synthetic mutated peptide of the lysostaphin catalytic domain; also called 95-99
- IC50 [21]: 25.4 µM
- IC50 [23]: < 0.01 µM
- IC50 [25]: 104 µM
- IC50 [26]: < 0.01 µM
- IC50 [27]: 25.8 µM

B6: cluster 4 peptide with Tyr93His/Lys95Glu/Ile99Gln (peptide)
peptide: DHVEAGQQIGWSGSTGY
notes: synthetic mutated peptide of the lysostaphin catalytic domain; also called 939599
- IC50 [25]: 179 µM

B7: cluster 4 peptide with Tyr93His/Ile99Gln (peptide)
peptide: DHVKAGQQIGWSGSTGY
notes: synthetic mutated peptide of the lysostaphin catalytic domain; also called 93_99
- IC50 [23]: < 0.01 µM
- IC50 [25]: 60.5 µM
- IC50 [26]: < 0.01 µM
- IC50 [27]: < 0.01 µM

B8: cluster 4 peptide with Lys95Glu (peptide)
peptide: DYVEAGQIIGWSGSTGY
notes: synthetic mutated peptide of the lysostaphin catalytic domain; also called K95E
- IC50 [21]: 6.32 µM
- IC50 [22]: 12.2 µM
- IC50 [23]: < 0.01 µM
- IC50 [24]: 25.7 µM
- IC50 [25]: 4.81 µM
- IC50 [26]: < 0.01 µM
- IC50 [27]: < 0.01 µM
- IC50 [28]: 1.9 µM

B9: cluster 4 peptide with Ile99Gln (peptide)
peptide: DYVKAGQQIGWSGSTGY
notes: synthetic mutated peptide of the lysostaphin catalytic domain; also called I99Q
- IC50 [21]: 24.3 µM
- IC50 [23]: 31.7 µM
- IC50 [25]: 93.1 µM
- IC50 [26]: 66.1 µM
- IC50 [27]: 6.16 µM

B10: cluster 4 peptide with Tyr93His (peptide)
peptide: DHVKAGQIIGWSGSTGY
notes: synthetic mutated peptide of the lysostaphin catalytic domain; also called Y93H
- IC50 [23]: 103 µM
- IC50 [25]: 182 µM
- IC50 [26]: < 0.01 µM

B11: cluster 4 peptide with Tyr93His/Lys95Glu (peptide)
peptide: DHVEAGQIIGWSGSTGY
notes: synthetic mutated peptide of the lysostaphin catalytic domain; also called 93_95
- IC50 [21]: 25 µM
- IC50 [22]: 30.9 µM
- IC50 [23]: 9.98 µM
- IC50 [24]: 18.9 µM
- IC50 [25]: 24.9 µM
- IC50 [26]: 0.06 µM
- IC50 [27]: 25.5 µM
- IC50 [28]: 110 µM

B12: cluster 5 peptide with Ser124Gly (peptide)
peptide: HLHFQRMVNSFGNPTAQ
notes: synthetic mutated peptide of the lysostaphin catalytic domain; also called S124G
- IC50 [29]: 0.3 µM
- IC50 [30]: < 0.01 µM
- IC50 [31]: 151 µM
- IC50 [32]: < 0.01 µM
- IC50 [33]: 0.04 µM

Binder: SAQWLNNYKKGYGYG [cluster 1 wild-type (C1WT) epitope peptide]
- IC50 [34]: 0.94 µM
- IC50 [35]: 13.7 µM
- IC50 [36]: 215 µM
- IC50 [37]: 137 µM
- IC50 [38]: 102 µM

B13: cluster 1 peptide with Asn12Gly (peptide)
peptide: SAQWLGNYKKGYGYG
notes: synthetic mutated peptide of the lysostaphin catalytic domain
- IC50 [34]: 5.16 µM
- IC50 [35]: 58.6 µM
- IC50 [36]: < 0.01 µM

B14: cluster 1 peptide with Asn13His (peptide)
peptide: SAQWLNHYKKGYGYG
notes: as for B13
- IC50 [34]: 4.13 µM
- IC50 [37]: 41.6 µM
